The results in this text go back to US20120245104A1, “NOVEL RETRO-INVERSO LEPTIN PEPTIDE ANTAGONISTS” (priority 2011, published 2012).

Where no end group is shown, it is not given here. [ ]: non-standard residue; d: D form.

The target in assay [1] is T1, leptin receptor (ObR) (UniProt P48357 22-1165, limits assumed).
T1 sequence (looked up): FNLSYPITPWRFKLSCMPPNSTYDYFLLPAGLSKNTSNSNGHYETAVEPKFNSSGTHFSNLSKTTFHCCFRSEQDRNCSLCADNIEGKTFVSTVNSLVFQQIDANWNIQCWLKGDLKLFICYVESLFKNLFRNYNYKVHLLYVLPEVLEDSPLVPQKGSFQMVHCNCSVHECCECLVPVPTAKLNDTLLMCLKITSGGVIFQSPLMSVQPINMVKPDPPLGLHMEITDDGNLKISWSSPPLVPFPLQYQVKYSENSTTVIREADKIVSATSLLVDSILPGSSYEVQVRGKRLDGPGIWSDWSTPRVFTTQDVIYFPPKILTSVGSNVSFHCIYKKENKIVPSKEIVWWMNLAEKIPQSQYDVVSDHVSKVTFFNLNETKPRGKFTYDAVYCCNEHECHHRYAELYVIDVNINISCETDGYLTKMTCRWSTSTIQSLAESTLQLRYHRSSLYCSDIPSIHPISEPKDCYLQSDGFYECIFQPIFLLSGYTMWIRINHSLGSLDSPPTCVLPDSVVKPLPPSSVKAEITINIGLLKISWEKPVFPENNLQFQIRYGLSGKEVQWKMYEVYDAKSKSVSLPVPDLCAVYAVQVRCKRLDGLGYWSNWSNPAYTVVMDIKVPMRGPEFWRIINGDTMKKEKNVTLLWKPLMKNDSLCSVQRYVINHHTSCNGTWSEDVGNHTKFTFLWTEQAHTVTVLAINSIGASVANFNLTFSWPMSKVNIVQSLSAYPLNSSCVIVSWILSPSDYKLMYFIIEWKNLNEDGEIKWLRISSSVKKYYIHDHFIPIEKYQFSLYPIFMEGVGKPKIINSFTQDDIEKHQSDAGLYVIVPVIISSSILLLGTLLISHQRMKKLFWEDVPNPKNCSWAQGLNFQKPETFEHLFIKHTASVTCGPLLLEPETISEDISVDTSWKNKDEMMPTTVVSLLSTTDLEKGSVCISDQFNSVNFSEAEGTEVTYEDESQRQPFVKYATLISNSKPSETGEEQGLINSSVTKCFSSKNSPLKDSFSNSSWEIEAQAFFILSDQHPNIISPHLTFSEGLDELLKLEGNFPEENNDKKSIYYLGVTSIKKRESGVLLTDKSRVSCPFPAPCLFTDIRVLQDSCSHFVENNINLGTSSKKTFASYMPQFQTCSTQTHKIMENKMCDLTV
The assay can be described thus: cell-based or functional assay.

Assay [2] has as its target T1, leptin receptor (ObR). As to the kind of experiment: cell-based or functional assay. This is another data set of the same source.

For the molecule VQDDTKTLIKTIVTRINDI-NH2 [Truncated LPA-1 (6-24), T10 (original amino acid)], in the assay with leptin receptor (ObR) [1], the “IC50 (half maximal inhibitory concentration), inhibition of leptin-induced cell growth” value (“IC50 … inhibition of leptin-induced cell growth” below) was found to be 25.7 nM. For the same molecule, the “IC50, inhibition of leptin-induced growth of MCF-7 cells” value (“IC50, inhibition” for short) in the assay with leptin receptor (ObR) [2] was 25.7 nM.
With NVIQISNILENLRDLLHV-NH2 [Truncated LPA-2 (72-89), D79 Ile substitution], in the assay with leptin receptor (ObR) [1], the “IC50 … inhibition of leptin-induced cell growth” value was found to be 16 nM.
With NVIQISNALENLRDLLHV-NH2 [Truncated LPA-2 (72-89), D79 Ala substitution], the “IC50 … inhibition of leptin-induced cell growth” value in the assay with leptin receptor (ObR) [1] amounted to 54 nM.
On the same count and under the same terms, the figure for NVIQISNLLENLRDLLHV-NH2 [Truncated LPA-2 (72-89), D79 Leu substitution] is 16 nM.
Regarding IQKVQDDTKTLIKTIVTRINDISHTQSVSSKQ-NH2 [Full-length LPA-1 (3-34)], the “IC50 … inhibition of leptin-induced cell growth” value in the assay with leptin receptor (ObR) [1] came to 39.1 nM. Also, the “IC50, inhibition” value in the assay with leptin receptor (ObR) [2] amounted to 39.1 nM.
As for VQDDVKTLIKTIVTRINDI-NH2 [Truncated LPA-1 (6-24), T10 Val substitution], in the assay with leptin receptor (ObR) [1], the “IC50 … inhibition of leptin-induced cell growth” value came out at 20.7 nM.
With SRNVIQISNDLENLRDLLHVLAFSKS-NH2 [Full-length LPA-2 (70-95)], the “IC50 … inhibition of leptin-induced cell growth” value with leptin receptor (ObR) [1] is 33 nM. In addition, the “IC50, inhibition” value with leptin receptor (ObR) [2] was determined as 33 nM.

B1: Retro-inverso LPA-2(89-72), D-L79 (peptide)
peptide: H-[dV][dH][dL][dL][dD][dR][dL][dN][dE][dL][dL][dN][dS][dI][dQ][dI][dV][dN]-NH2
SMILES: CC[C@@H](C)[C@@H](NC(=O)[C@@H](CO)NC(=O)[C@@H](CC(N)=O)NC(=O)[C@@H](CC(C)C)NC(=O)[C@@H](CC(C)C)NC(=O)[C@@H](CCC(=O)O)NC(=O)[C@@H](CC(N)=O)NC(=O)[C@@H](CC(C)C)NC(=O)[C@@H](CCCNC(=N)N)NC(=O)[C@@H](CC(=O)O)NC(=O)[C@@H](CC(C)C)NC(=O)[C@@H](CC(C)C)NC(=O)[C@@H](Cc1c[nH]cn1)NC(=O)[C@H](N)C(C)C)C(=O)N[C@H](CCC(N)=O)C(=O)N[C@@H](C(=O)N[C@@H](C(=O)N[C@H](CC(N)=O)C(N)=O)C(C)C)[C@H](C)CC
For the molecule B1, the “IC50, inhibition” value in the assay with leptin receptor (ObR) [2] was determined as 18.7 nM.
VQDDIKTLIKTIVTRINDI-NH2 [Truncated LPA-1 (6-24), T10 Ile substitution]: the “IC50 … inhibition of leptin-induced cell growth” value in the assay with leptin receptor (ObR) [1] was found to be 21 nM.
On the same count and under the same terms, the same measure for VQDDAKTLIKTIVTRINDI-NH2 [Truncated LPA-1 (6-24), T10 Ala substitution]: 88 nM.
For NVIQISNDLENLRDLLHV-NH2 [Truncated LPA-2 (72-89), D79 (original amino acid)], the “IC50 … inhibition of leptin-induced cell growth” value with leptin receptor (ObR) [1] is 32 nM. The “IC50, inhibition” value in the assay with leptin receptor (ObR) [2] amounted to 32 nM.

B2: Retro-inverso LPA-1(24-6), D-V10 (peptide)
peptide: H-[dI][dD][dN][dI][dR][dT][dV][dI][dT][dK][dI][dL][dT][dK][dV][dD][dD][dQ][dV]-NH2
SMILES: CC[C@@H](C)[C@@H](N)C(=O)N[C@H](CC(=O)O)C(=O)N[C@H](CC(N)=O)C(=O)N[C@@H](C(=O)N[C@H](CCCNC(=N)N)C(=O)N[C@@H](C(=O)N[C@@H](C(=O)N[C@@H](C(=O)N[C@@H](C(=O)N[C@H](CCCCN)C(=O)N[C@@H](C(=O)N[C@H](CC(C)C)C(=O)N[C@@H](C(=O)N[C@H](CCCCN)C(=O)N[C@@H](C(=O)N[C@H](CC(=O)O)C(=O)N[C@H](CC(=O)O)C(=O)N[C@H](CCC(N)=O)C(=O)N[C@@H](C(N)=O)C(C)C)C(C)C)[C@H](C)O)[C@H](C)CC)[C@H](C)O)[C@H](C)CC)C(C)C)[C@H](C)O)[C@H](C)CC
Regarding B2, the “IC50, inhibition” value with leptin receptor (ObR) [2] came out at 17.4 nM.

B3: Retro-inverso LPA-2(89-72), D-V79 (peptide)
peptide: H-[dV][dH][dL][dL][dD][dR][dL][dN][dE][dL][dV][dN][dS][dI][dQ][dI][dV][dN]-NH2
SMILES: CC[C@@H](C)[C@@H](NC(=O)[C@@H](CO)NC(=O)[C@@H](CC(N)=O)NC(=O)[C@H](NC(=O)[C@@H](CC(C)C)NC(=O)[C@@H](CCC(=O)O)NC(=O)[C@@H](CC(N)=O)NC(=O)[C@@H](CC(C)C)NC(=O)[C@@H](CCCNC(=N)N)NC(=O)[C@@H](CC(=O)O)NC(=O)[C@@H](CC(C)C)NC(=O)[C@@H](CC(C)C)NC(=O)[C@@H](Cc1c[nH]cn1)NC(=O)[C@H](N)C(C)C)C(C)C)C(=O)N[C@H](CCC(N)=O)C(=O)N[C@@H](C(=O)N[C@@H](C(=O)N[C@H](CC(N)=O)C(N)=O)C(C)C)[C@H](C)CC
As to B3, the “IC50, inhibition” value with leptin receptor (ObR) [2] worked out at 13.6 nM.

B4: Retro-inverso LPA-1(24-6), D-L10 (peptide)
peptide: H-[dI][dD][dN][dI][dR][dT][dV][dI][dT][dK][dI][dL][dT][dK][dL][dD][dD][dQ][dV]-NH2
SMILES: CC[C@@H](C)[C@@H](N)C(=O)N[C@H](CC(=O)O)C(=O)N[C@H](CC(N)=O)C(=O)N[C@@H](C(=O)N[C@H](CCCNC(=N)N)C(=O)N[C@@H](C(=O)N[C@@H](C(=O)N[C@@H](C(=O)N[C@@H](C(=O)N[C@H](CCCCN)C(=O)N[C@@H](C(=O)N[C@H](CC(C)C)C(=O)N[C@@H](C(=O)N[C@H](CCCCN)C(=O)N[C@H](CC(C)C)C(=O)N[C@H](CC(=O)O)C(=O)N[C@H](CC(=O)O)C(=O)N[C@H](CCC(N)=O)C(=O)N[C@@H](C(N)=O)C(C)C)[C@H](C)O)[C@H](C)CC)[C@H](C)O)[C@H](C)CC)C(C)C)[C@H](C)O)[C@H](C)CC
Consider B4, for which the “IC50, inhibition” value in the assay with leptin receptor (ObR) [2] stood at 11.8 nM.
As for NVIQISNVLENLRDLLHV-NH2 [Truncated LPA-2 (72-89), D79 Val substitution], the “IC50 … inhibition of leptin-induced cell growth” value with leptin receptor (ObR) [1] came out at 15.6 nM.
